Measured values published in doi:10.1101/2024.02.22.580433 (bioRxiv, 2024).
Where a chain is given by its changes, count along the chain named. Numbers in names are those of the source.

B1: Acanthamoeba polyphaga mimivirus gp275 (encoded by gene R252) (natural protein, UniProt Q5UPU2 1-278, looked up)
chain: MMIHIHQDKKMSTRSNKKSTKTEKVAKATKPVENVEVSDNEVQEQAVKTKASGKKVTAKSTKQSGGKNAKSGSKSAKSGSKSAKSGSKTSKTQSGGKGDESRDRYFKLIDAKTGRSFGRYTGGTPKQAASKGFTKMIHKIKAEGGALPKNGTMKIYLRESTRGSPRKVYAYEATRKQLTEPQKIEIEGSDGKKKVITYRYRNVIHKVSAPLPNQLGGLKTSRSNKKSGETKKSGSRSSGSKRSAKPTKSAKNAKSTGNKKVSTKSAGAKKAPAAKASR
B2: gp275-K126A (natural protein, Acanthamoeba polyphaga mimivirus, UniProt Q5UPU2 1-278, looked up)
chain: B1 chain with K126A

What was measured:
[1] = biological target: gp275-do, the minimal MC1 domain of gp275 (Acanthamoeba polyphaga mimivirus) (UniProt Q5UPU2); test: SEC
[2] = biological target: the molecule itself; test: SEC

Molecule	stoichiometry N [1]	stoichiometry N [2]
gp275-do, the minimal MC1 domain of gp275 (from UniProt Q5UPU2 97-228) (domain or fragment)	2	
B1		4
B2		4
